Source: EP4360658A1, “COMPOUNDS FOR DETECTION OF ORAL INFLAMMATION” (Julius-Maximilians-Universität Würzburg, priority 2022, dated 2024)
Where “and” joins values, the source holds several entries; their conditions need not be identical. Identical values can stand only once. *1 amine or outer side, *2 acyl side, *3 side chain or, on linkers, in order; H or OH if unused. Where a SMILES comes first, the peptide text is derived from it. Primed or numbered codes have the meaning given here. Where no end group is shown, it is not given here. [ ]: non-standard residue; d: D form. The star is where a group is joined. Aha′ = its azide, alkyne or alkene has reacted where a group follows in round brackets; Den = denatonium (bitter payload), attached at the C-terminus via CH2-NH2; DBCO‑Sulfo‑Cy5 = fluorescent dye clicked to Aha; AFDye488‑DBCO = fluorescent dye clicked to Aha; X1 = CC[N+](CC)(CC(=O)[*:2])Cc1ccc(CN[*:1])cc1; NH(2,6-Me2-phenyl) = Cc1cccc(C)c1N*

How the values were obtained:
MMP-1 = biological target: T1, MMP-1 (Homo sapiens, UniProt P03956); assay: Sensor cleavage by MMP-1; assay type: biochemical; conditions: for cleavage rate (multiplexing): sensors in mixture, 17.5 nM MMP-1, incubation 15 minutes
T1 construct: purchased Merck Millipore
T1 sequence (P03956 100-469): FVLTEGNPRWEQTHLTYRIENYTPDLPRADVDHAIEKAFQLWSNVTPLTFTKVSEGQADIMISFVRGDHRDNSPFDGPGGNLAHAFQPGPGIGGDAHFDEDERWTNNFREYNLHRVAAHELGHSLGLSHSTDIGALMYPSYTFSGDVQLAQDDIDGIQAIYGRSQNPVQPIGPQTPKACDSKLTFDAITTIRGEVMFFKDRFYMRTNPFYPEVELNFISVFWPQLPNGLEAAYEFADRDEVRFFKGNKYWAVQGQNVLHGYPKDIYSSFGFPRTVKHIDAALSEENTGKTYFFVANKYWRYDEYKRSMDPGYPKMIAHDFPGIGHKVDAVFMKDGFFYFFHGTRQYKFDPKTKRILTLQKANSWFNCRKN
Protocol: (§1) Pro-Matrix-metalloproteinases (MMP-1, MMP-8, and MMP-9) (Merck Millipore, Burlington, MA, USA) were activated prior usage. To activate Pro-MMPs a fresh 50 mM 4-Aminophenylmercuric acetate (APMA) stock solution in 0.1 M NaOH was prepared. The stock solution was added in a 10:1 (v/v) ratio to Pro-MMPs (Pro-MMPs:APMA) to reach a final concentration of 5 mM APMA. The solution was incubated for 3 h at 37 °C without agitation. Following incubation, the activated MMPs were stored in aliquots at -80 °C.
Lyophilized sensors and Y3 were solubilized in MMP buffer (200 mM NaCl, 50 mM Tris-HCI, 5 mM CaCl2, 1 µM ZnCl2, 0.05 % Brij35 at pH 6.8-7.0) to 1 mM stock solutions. Cleavage was performed at 37 °C under rigorous shaking in 30 µL MMP buffer containing 0.1 mM of the respective sensor/peptide and 900 ng/mL MMP-8, or a molar equivalent of MMP-1 or MMP-9 for single cleavage conditions. Cleavage of sensors in mixture was performed with sensor concentrations of 25 µM for each sensor. The reaction was stopped via addition of 5 mM EDTA final concentration.
(§2) Experiments were performed n = 5. Cleavage was analyzed via fluorescent detection via HPLC with following wavelengths: SP3 (absorption: 646 nm; emission: 661 nm), SP5 (absorption: 494 nm; emission: 517 nm), SP7 (absorption: 553 nm; emission: 566 nm) and SN3 (absorption: 280 nm; emission: 350 nm). Y3 cleavage was analyzed as described before. Cleavage percent was analyzed by comparing the AUC of the main peak from the compound incubated with MMP and in absence of MMP. Cleavage percent was then normalized by multiplying cleavage results with a correction factor. The correction factor was determined individually for every experiment/MMP by dividing Y3 cleavage results acquired in protease sensitive linker identification study by cleavage results of Y3 in individual sensor cleavage experiments (Figure 3 D-F).

MMP-9 = biological target: T2, MMP-9 (Homo sapiens, UniProt P14780); assay: Sensor cleavage by MMP-9; assay type: biochemical
T2 construct: purchased Merck Millipore
Protocol: as §1
(§3) Lyophilized sensors and Y3 were solubilized in MMP buffer (200 mM NaCl, 50 mM Tris-HCI, 5 mM CaCl2, 1 µM ZnCl2, 0.05 % Brij35 at pH 6.8-7.0) to 1 mM stock solutions. […]
as §2, with “Cleavage percent was then normalized by multiplying cleavage results with a correction factor.” left out

MMP-8 = biological target: T3, MMP-8 (Homo sapiens, UniProt P22894); assay: Sensor cleavage by MMP-8; assay type: biochemical; conditions: sensors in mixture, 17.5 nM MMP-8, incubation 15 minutes
T3 construct: purchased Merck Millipore
Protocol: as §1, §3
as §2, with “Cleavage percent was then normalized by multiplying cleavage results with a correction factor.” left out

[1] = Sensor cleavage in human saliva; assay type: biochemical; conditions: for cleavage in saliva from patients compared to saliva from healthy donors: periodontitis patients vs. healthy donors
Protocol: Lyophilized sensors were solubilized in MMP buffer to 0.05 mM each and mixed with saliva 1:1 (v/v) to reach a final concentration of 25 µM per sensor. The solution was incubated for 15 min at 37 °C under rigorous shaking and the reaction was stopped via addition of 5 mM EDTA final concentration. The samples were diluted 1:2 with acetonitrile, 1:5 with water (1:10 total dilution) and analyzed via HPLC as described before. Cleavage efficiency was analyzed by comparing the AUC of the newly formed peaks compared to the total AUC of the combined peaks. Peaks with LU < 1 were considered below the limit of detection and set to 0.5 LU for further analysis.
The study participants were recruited from patients visiting the department of Periodontology of the University Hospital of Würzburg, Germany between Oct/2019 to Dec/2020. Periodontally healthy patients as well as patients with periodontal diseases of varying severity (gingivitis, periodontitis) were included. The periodontally diseased patients were in different stages of treatment (untreated patients before active initial therapy, treated recall patients in regular supportive aftercare). Eligibility criteria were age 18 to 99 years. Patients of both sexes, with and without periodontal disease were included in the study.
Periodontal examinations were obtained from all study participants comprising the documentation of missing teeth, probing pocket depths (PPD), recession, bleeding on probing (BoP), clinical attachment level (CAL), furcation involvement, tooth mobility and plaque control record (PlaCR). Demographic details and general health profile of the participants including current intake of medications and frequency of smoking was documented using a questionnaire. CAL, PPD and BoP were recorded at 6 sites per tooth (mesio-buccal, buccal, disto-buccal, disto-oral, oral, mesio-oral) using a pressure calibrated computer aided Florida Probe handpiece. Any bleeding spot appearing within 30 seconds after probing was recorded as a BoP-positive site. Furcation involvement was determined using a manual furcation probe (Nabers Probe). The total amount of periodontal inflammation present in each patient was calculated from the recorded BoP, CAL and PPD scores using the PISA-Index. Collected samples were quality-controlled hosted by the certified centralized biobank of the medical faculty of the University of Würzburg. […]
Saliva samples were prepared as above. The MMP-8 activity assay (Quickzyme, Leiden, Netherlands) was performed following provided protocols. In brief, reagents were prepared as described by protocols. […] Absorbance was measured at 405 nm in a microplate reader (Tecan Infinite F50, Crailsheim, Germany) at 0, 2, 4 and 6 h. […]

[2] = biological target: MMP mix (a mixture of MMPs 1, 8, and 9); assay: cell-based or functional assay
[3] = control saliva samples, per patient, sensors in mixture, 25 µM per sensor, 15 min at 37 °C

T2 sequence (P14780 107-707 limits assumed): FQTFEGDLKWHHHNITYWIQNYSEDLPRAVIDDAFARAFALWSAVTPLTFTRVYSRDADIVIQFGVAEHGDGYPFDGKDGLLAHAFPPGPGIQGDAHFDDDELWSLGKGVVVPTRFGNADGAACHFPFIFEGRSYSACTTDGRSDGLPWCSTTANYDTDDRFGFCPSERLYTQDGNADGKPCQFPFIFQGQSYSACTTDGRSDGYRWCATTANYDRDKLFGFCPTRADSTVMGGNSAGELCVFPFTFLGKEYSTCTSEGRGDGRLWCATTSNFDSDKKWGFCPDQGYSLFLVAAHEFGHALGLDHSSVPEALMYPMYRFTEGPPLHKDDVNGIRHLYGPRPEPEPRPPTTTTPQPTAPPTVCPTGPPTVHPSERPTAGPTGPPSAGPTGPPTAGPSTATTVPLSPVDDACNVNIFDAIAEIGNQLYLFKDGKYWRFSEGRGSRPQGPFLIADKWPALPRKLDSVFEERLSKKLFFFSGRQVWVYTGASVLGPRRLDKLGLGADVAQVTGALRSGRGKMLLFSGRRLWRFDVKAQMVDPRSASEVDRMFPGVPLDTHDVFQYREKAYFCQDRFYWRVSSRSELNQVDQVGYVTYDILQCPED
T3 sequence (P22894 101-467): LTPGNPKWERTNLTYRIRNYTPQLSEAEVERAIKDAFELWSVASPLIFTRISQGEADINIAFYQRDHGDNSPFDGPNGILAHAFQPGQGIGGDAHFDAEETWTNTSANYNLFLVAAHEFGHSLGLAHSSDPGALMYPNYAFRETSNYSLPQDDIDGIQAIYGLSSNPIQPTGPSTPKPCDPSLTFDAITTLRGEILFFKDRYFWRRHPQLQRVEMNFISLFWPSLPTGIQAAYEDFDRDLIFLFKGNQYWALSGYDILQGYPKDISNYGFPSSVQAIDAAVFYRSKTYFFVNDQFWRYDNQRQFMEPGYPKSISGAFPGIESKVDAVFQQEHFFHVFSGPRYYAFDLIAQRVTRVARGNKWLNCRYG

## CC[C@H](C)[C@H](NC(=O)CNC(=O)[C@H](CCC(N)=O)NC(=O)[C@@H]1CCCN1C(=O)CNC(=O)[C@H](CO)NC(=O)CNC(=O)[C@H](CO)NC(=O)CNC(C)=O)C(=O)N[C@@H](C)C(=O)NCC(=O)N[C@@H](C)C(=O)NCC(=O)N[C@@H](CO)C(=O)NCC(=O)N[C@@H](CO)C(=O)NCc1ccc(C[N+](CC)(CC)CC(=O)Nc2c(C)cccc2C)cc1 [S1, Ac-GSGS-GPQGIAGA-GSGS-Den] (Ac-GSGSGPQGIAGAGSGS[X1]-{NH(2,6-Me2-phenyl)})
MMP-1; MMP-1, 15 min, concentrations ranging from 1 to 10 nM
  maximum cleavage: 7%
MMP-9; MMP-9, 15 min, concentrations ranging from 1 to 10 nM
  maximum cleavage: 10%

## SY3: sensor from PSL-Y3: Y3a with C-terminal L-azidohomoalanine clicked to fluorescent dye DBCO-Sulfo-Cy5 (Ac-GSGSGPLALVGAGSGS[Aha′](DBCO‑Sulfo‑Cy5))
MMP-1
  cleavage rate (multiplexing): cleaved most effectively
MMP-8
  cleavage rate (multiplexing): cleaved most effectively
[1]; [3]
  Cleavage SY3: 1.39% (2×) and 3.77% and 3.71% and 2.96% and 0.34% and 4.60% and 1.80% and 5.40% and 0.29% and 11.05% and 1.60% and 1.07% and 0.38% and 0.37% and 0.31%
[1]
  cleavage in saliva from patients compared to saliva from healthy donors: discriminated against periodontitis

## SY5: sensor from PSL-Y5: Y5a with C-terminal L-azidohomoalanine clicked to fluorescent dye AFDye488-DBCO (Ac-GSGSGALELVGAGSGS[Aha′](AFDye488‑DBCO))
MMP-1
  cleavage rate (multiplexing): not MMP-1 or MMP-9
MMP-8
  cleavage rate (multiplexing): responded to MMP-8
MMP-9; sensors in mixture, 17.5 nM MMP-9, incubation 15 minutes
  cleavage rate (multiplexing): not MMP-1 or MMP-9
[1]; [3]
  Cleavage SY5: 2.55% and 4.69% and 2.64% and 2.11% and 0.17% (2×) and 3.56% and 2.25% and 4.88% and 0.14% and 11.04% and 2.84% and 0.18% (2×) and 0.16% and 0.15%
[1]
  cleavage in saliva from patients compared to saliva from healthy donors: discriminated against periodontitis

## Ac-GSGSGPQGIAGAGSGS-Den [Sensor S1, Ac-GSGS-GPQGIAGA-GSGS-Den]
[2]
  cleavage rate (4 nM MMP mix, 5 min, HPLC): < 1%
  cleavage rate (8 nM MMP mix, 5 min, HPLC): > 20%
